# Data reported in the supplement of paper PMC6757056.
# ± gives the standard deviation of the averaged measurements.
# B1: library; a variant is named by its letters at N, in order (parent)
# chain: GCUGUCACCGGAAUACCAGCAUCGUCUUGAUGCCCUUGGAAGUCCGGUCUGAUGAGUCCNNNNNGGACGAAACAGC
# How the values were obtained:
# theophylline [1] = variants of: B1; experiment: FACS-Seq fitted mean relative fluorescence mCherry/BFP without ligand (log10 relative fluorescence); higher = higher reporter protein expression; details: HEK293T, ligand present: no
# Procedure: (§1)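 Hammerhead (sTRSV) ribozyme switch libraries with a ligand aptamer grafted on stem I and a randomized N4-6 loop II, cloned into the 3' UTR of mCherry and transiently transfected into HEK293T cells; RNA-Seq 72 h post transfection with ligand added 1 h before transfection; RNA read count / plasmid DNA read count normalized to the non-cleaving sTRSVctl (x100), log10; sequences with >100 DNA reads. FACS-Seq: lentiviral library sorted into 6 bins after 48 h ligand, log-normal fit mean of mCherry/BFP scaled to controls. Printed sequences are partial switch sequences.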
# theophylline [2] = variants of: B1; experiment: normalized RNA/DNA level with ligand (relative to sTRSVctl = 100) (log10 (% of sTRSVctl)); higher = less ribozyme self-cleavage, higher mRNA level; details: ligand concentration (+) RNA-Seq: 5 mM, HEK293T, reporter: mCherry (pCS4076), ligand present: yes
# Procedure: as §1
# theophylline [3] = variants of: B1; experiment: normalized RNA/DNA level without ligand (relative to sTRSVctl = 100) (log10 (% of sTRSVctl)); higher = less ribozyme self-cleavage, higher mRNA level; details: HEK293T, reporter: mCherry (pCS4076), ligand present: no
# Procedure: as §1
# theophylline [4] = variants of: B1; experiment: FACS-Seq fitted mean relative fluorescence mCherry/BFP with ligand (log10 relative fluorescence); ligand concentration (+) FACS-Seq: 1 mM; higher = higher reporter protein expression; details: HEK293T, ligand present: yes
# Procedure: as §1
Variant,FACS-Seq fitted mean (log10) (theophylline [1]),normalized RNA/DNA level with ligand (log10) (theophylline [2]),normalized RNA/DNA level without ligand (log10) (theophylline [3]),FACS-Seq fitted mean (log10) (theophylline [4])
UAUAA,0.194 ± 0.045,2.02 ± 0.052,1.47 ± 0.088,0.511 ± 0.038
UAUAG,0.9651 ± 0.0015,1.95 ± 0.053,1.855 ± 0.015,0.896 ± 0.067
UAUAC,0.747 ± 0.029,2.06 ± 0.027,1.98 ± 0.088,0.749 ± 0.0085
UACAU,0.684 ± 0.015,2.03 ± 0.17,1.91 ± 0.14,0.722 ± 0.0088
UACAA,0.427 ± 0.022,1.972 ± 0.012,1.6 ± 0.032,0.553 ± 0.018
UACAC,0.83 ± 0.034,1.98 ± 0.02,1.99 ± 0.025,0.695 ± 0.097
UACAG,1.02 ± 0.041,1.96 ± 0.051,1.908 ± 0.018,0.918 ± 0.052
AACCU,0.83 ± 0.037,2.06 ± 0.1,1.949 ± 0.017,0.698 ± 0.016
AACCC,0.867 ± 0.012,2.042 ± 0.014,1.97 ± 0.031,0.862 ± 0.045
AACCA,0.923 ± 0.12,2.001 ± 0.0053,1.82 ± 0.047,0.908 ± 0.065
AACCG,0.924 ± 0.031,2 ± 0.031,1.89 ± 0.071,1.13 ± 0.098
UACGU,0.851 ± 0.024,2.022 ± 0.012,1.92 ± 0.014,0.816 ± 0.023
UACGC,0.81 ± 0.14,2.01 ± 0.038,1.98 ± 0.17,0.916 ± 0.039
UACGA,0.287 ± 0.021,2.07 ± 0.025,1.72 ± 0.097,0.324 ± 0.024
CAGUA,0.206 ± 0.0074,1.95 ± 0.15,1.27 ± 0.084,0.675 ± 0.018
CAGUC,0.691 ± 0.085,1.94 ± 0.086,1.86 ± 0.14,0.68 ± 0.13
CAGUU,0.491 ± 0.036,2.06 ± 0.055,1.6287 ± 0.00046,0.76 ± 0.037
GACAG,0.769 ± 0.29,1.952 ± 0.0094,1.77 ± 0.055,0.612 ± 0.13
GACAA,0.619 ± 0.048,1.938 ± 0.019,1.56 ± 0.022,0.731 ± 0.017
GACAU,0.478 ± 0.063,2.04 ± 0.032,1.859 ± 0.0069,0.576 ± 0.07
GAACG,1.01 ± 0.081,1.89 ± 0.14,1.793 ± 0.015,1.03 ± 0.028
GAACU,0.973 ± 0.11,2.033 ± 0.0061,1.83 ± 0.12,0.975 ± 0.024
GAACC,0.828 ± 0.017,2 ± 0.024,1.87 ± 0.13,0.834 ± 0.11
GACUU,0.702 ± 0.12,2.1 ± 0.051,1.79 ± 0.038,0.696 ± 0.051

Variant,FACS-Seq fitted mean (log10) (theophylline [1]),normalized RNA/DNA level with ligand (log10) (theophylline [2]),normalized RNA/DNA level without ligand (log10) (theophylline [3]),FACS-Seq fitted mean (log10) (theophylline [4])
GACUG,0.5397 ± 0.0016,1.98 ± 0.076,1.804 ± 0.0069,0.61 ± 0.081
CACCA,0.7294 ± 0.00094,1.97 ± 0.083,1.8 ± 0.071,0.792 ± 0.053
CACCU,0.774 ± 0.091,2.06 ± 0.075,1.78 ± 0.097,0.9241 ± 4.2e-05
CACCC,0.8 ± 0.07,1.92 ± 0.06,1.93 ± 0.024,0.762 ± 0.018
AACUA,0.84 ± 0.078,2.01 ± 0.045,1.77 ± 0.053,1 ± 0.015
AACUG,0.814 ± 0.11,2 ± 0.12,1.8 ± 0.18,0.939 ± 0.032
AACUU,1.01 ± 0.076,1.9847 ± 0.0011,1.89 ± 0.059,0.981 ± 0.015
AACUC,0.94 ± 0.044,2.01 ± 0.11,1.916 ± 0.016,0.924 ± 0.031
CAUAC,0.865 ± 0.024,1.917 ± 0.0021,1.8 ± 0.092,0.996 ± 0.019
CAUAA,-0.291 ± 0.12,1.88 ± 0.0023,1.06 ± 0.47,0.446 ± 0.011
CAGCA,0.319 ± 0.011,1.88 ± 0.099,1.52 ± 0.1,0.461 ± 0.062
CAGCU,0.425 ± 0.0073,2.017 ± 0.019,1.75 ± 0.059,0.527 ± 0.0083
CAGCC,0.864 ± 0.054,2 ± 0.035,1.97 ± 0.025,0.846 ± 0.13
AACAU,0.214 ± 0.0061,1.93 ± 0.1,1.75 ± 0.067,0.439 ± 0.045
AACAA,0.377 ± 0.039,1.99 ± 0.086,1.45 ± 0.25,0.704 ± 0.013
AACAG,0.587 ± 0.0063,1.855 ± 0.014,1.78 ± 0.055,0.677 ± 0.035
AACAC,0.834 ± 0.025,1.94 ± 0.048,1.91 ± 0.075,0.925 ± 0.089
CAGAA,0.0186 ± 0.078,1.95 ± 0.054,1.2 ± 0.22,0.681 ± 0.037
CAGAC,0.2 ± 0.032,2.04 ± 0.028,1.9 ± 0.086,0.0728 ± 0.14
CAGAU,0.809 ± 0.1,2 ± 0.035,1.6 ± 0.25,1.05 ± 0.037
CACAC,0.945 ± 0.11,2.02 ± 0.044,1.88 ± 0.11,1.03 ± 0.2
CACAA,0.062 ± 0.032,2.014 ± 0.0084,1.56 ± 0.11,0.3195 ± 0.0011
CACAU,0.589 ± 0.032,1.964 ± 0.0051,1.68 ± 0.099,0.693 ± 0.025
CACUU,0.741 ± 0.014,2 ± 0.028,1.756 ± 0.0024,1.028 ± 0.0013

Variant,FACS-Seq fitted mean (log10) (theophylline [1]),normalized RNA/DNA level with ligand (log10) (theophylline [2]),normalized RNA/DNA level without ligand (log10) (theophylline [3]),FACS-Seq fitted mean (log10) (theophylline [4])
CACUA,0.228 ± 0.023,1.99 ± 0.058,1.44 ± 0.063,0.437 ± 0.048
CACUC,1 ± 0.12,2 ± 0.11,1.98 ± 0.096,0.969 ± 0.1
CAAUA,0.192 ± 0.018,1.96 ± 0.054,1.16 ± 0.17,0.785 ± 0.033
CAAUC,0.844 ± 0.034,1.94 ± 0.053,1.83 ± 0.13,0.825 ± 0.014
CAAUU,0.59 ± 0.019,2.02 ± 0.033,1.65 ± 0.096,0.775 ± 0.021
UAGCA,0.6175 ± 0.0054,1.95 ± 0.052,1.55 ± 0.091,0.757 ± 0.046
UAGCG,1.09 ± 0.18,1.94 ± 0.066,1.9 ± 0.019,1.08 ± 0.016
UAGCU,1.23 ± 0.19,2.01 ± 0.048,1.93 ± 0.068,1.14 ± 0.05
CAACC,1.06 ± 0.065,1.91 ± 0.059,1.994 ± 0.0033,1.02 ± 0.03
CAACU,0.64 ± 0.013,1.98 ± 0.048,1.73 ± 0.17,0.815 ± 0.097
GAAGU,0.25 ± 0.013,1.94 ± 0.12,1.68 ± 0.17,0.483 ± 0.031
GAAGG,0.991 ± 0.26,1.87 ± 0.011,1.72 ± 0.12,0.957 ± 0.057
GAAGA,0.532 ± 0.0054,1.89 ± 0.051,1.46 ± 0.36,0.761 ± 0.092
UAGUA,0.245 ± 0.011,1.87 ± 0.019,1.45 ± 0.074,0.503 ± 0.008
UAGUC,0.521 ± 0.015,1.925 ± 0.01,1.88 ± 0.067,0.4472 ± 0.0043
UAGGA,0.042 ± 0.047,1.958 ± 0.0077,1.55 ± 0.063,0.302 ± 0.044
AAGAG,0.563 ± 0.11,1.97 ± 0.099,1.67 ± 0.089,0.728 ± 0.02
AAGAC,0.968 ± 0.16,1.91 ± 0.06,1.86 ± 0.14,0.922 ± 0.12
AAGAU,0.919 ± 0.085,1.97 ± 0.06,1.69 ± 0.052,1.06 ± 0.11
AAGAA,0.0676 ± 0.046,1.94 ± 0.04,1.36 ± 0.025,0.545 ± 0.015
CAAGU,0.759 ± 0.043,1.976 ± 0.016,1.94 ± 0.067,0.761 ± 0.14
CAAGC,0.66 ± 0.031,1.96 ± 0.064,1.99 ± 0.079,0.543 ± 0.046
CAAGA,0.32 ± 0.031,1.97 ± 0.023,1.56 ± 0.15,0.3733 ± 0.0017
